Ends that are not written are not given here.
Key:
A1PI [1] = target: T1, A1PI (Homo sapiens, UniProt P01009); assay: A1PI binding on peptide-resin column, injection of 1 mg A1PI in equilibration buffer; conditions: for Percent AlPI Eluted by Fraction, 1M NaCl / Percent AlPI Eluted by Fraction, 2% Acetic Acid / Percent AlPI Eluted by Fraction, Flowthrough: sequence order, 1 mg AlPI; for % of Total A1PI Eluted by Fraction (Based on Absorbance at 280 nm), 1M NaCl / % of Total A1PI Eluted by Fraction (Based on Absorbance at 280 nm), 2% Acetic Acid / % of Total A1PI Eluted by Fraction (Based on Absorbance at 280 nm), Flowthrough: 1 mg A1PI
T1 construct: Human plasma is currently the only approved source of therapeutic AlPI
T1 sequence (P01009 25-418): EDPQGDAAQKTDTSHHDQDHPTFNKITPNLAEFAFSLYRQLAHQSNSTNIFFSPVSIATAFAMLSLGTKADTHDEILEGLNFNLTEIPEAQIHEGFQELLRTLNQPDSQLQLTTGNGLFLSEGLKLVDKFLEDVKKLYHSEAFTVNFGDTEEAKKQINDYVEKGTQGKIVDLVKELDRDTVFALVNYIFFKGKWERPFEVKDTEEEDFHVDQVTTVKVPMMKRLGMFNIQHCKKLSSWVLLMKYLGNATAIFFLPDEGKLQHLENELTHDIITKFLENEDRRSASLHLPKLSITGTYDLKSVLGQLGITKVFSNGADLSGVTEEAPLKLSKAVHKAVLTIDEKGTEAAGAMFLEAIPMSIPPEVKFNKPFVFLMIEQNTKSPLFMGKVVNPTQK
Experimental: (§1) Confirmatory binding assays were performed in a column chromatographic format on a microbore HPLC using individual peptide sequences synthesized directly onto the Toyopearl 650 M Chelate resin which had been modified with Totda followed by an alanine residue (A-Totda-Toyopearl), at a final substitution density of 0.1 mmole/g resin. The resin was packed into 0.4×5 cm columns (Thomson, Springfield, Va.) and tested on the Michrom HPLC system (Michrom BioResources, Auburn, Calif.). The elution program for all trials utilized the following method. The column was pre-equilibrated with equilibration buffer (as above). 1 ml of sample was injected and allowed sufficient time to flowthrough the column using equilibration buffer. The column was then washed with step elutions of 1M NaCl and 3M NaCl in equilibration buffer. The column was exposed to equilibration buffer with 0.1M NaCl. Any remaining protein was eluted with elution buffer (2% by volume glacial acetic acid in water).
(§2) A Gilson FC204 fraction collector at the HPLC outlet collected individual eluates for further analysis. Fractions collected from the 2% acetic acid eluates were neutralized with 2M Tris, pH 10.5 to bring the pH to neutrality. The protein samples were reconstituted in equilibration buffer unless otherwise stated. The samples were analyzed by the integration of the absorbance at 280 nm or by immunonephelometry. The specific method of determination is presented for each figure.
Tables 2 and 3 present the elution profiles for 19 sequences based on the injection of 1 mg AlPI in equilibration buffer at 4° C. and 20° C., respectively. The columns were run at a constant flow rate of865 μl/min (413 cm/hr) or 523 μl/min (250 cm/hr). No dependence of the elution profile with flow rate was found. The Percent AlPI Eluted by Fraction represents the amount eluted in the flowthrough, 1M NaCl wash, and 2% acetic acid fractions relative to the total AlPI eluted. The percentages are based on either the integration of the peak areas at […]

A1PI [2] = target: T1, A1PI; assay: A1PI purification from 5 mg hSA + 1 mg A1PI on peptide column, A1PI mass balance; assay type: binding; conditions: A1PI, 5 mg hSA + 1 mg A1PI
Experimental: as §1, §2
Columns were assayed with a mixture of 5 mg human serum albumin (hSA)+1 mg AlPI at 4° C. (Table 4, Seq. ID 1-11, 15, 17) and 20° C. (Table 5, Seq. ID 1-10, 13, 15, 17). The chromatography method was modified to provide for a 10 minute residence time of sample in the column by decreasing the flow to 17 μl/min (10 cm/hr) upon injection. Following the incubation, the flow was set at 865 μl/min (413 cm/hr) for the step elutions of 1M NaCl, 3M NaCl, and 2% acetic acid. The mass balances presented are based upon immunonephelometry. The Percent Eluted value is protein-specific and based on the amount of the protein eluted in a […]

[3] = 1 mg A1PI in equilibration buffer, 4° C.
[4] = 1 mg A1PI in equilibration buffer, 20° C.
[5] = 4° C., relative to total eluted
[6] = 20° C., * Below detection limit
[7] = 20° C., relative to total eluted
[8] = Table 19, 4° C., * Below detection limit
[9] = Table 19, 4° C., relative to total loaded
[10] = Table 19, 20° C., * Below detection limit
[11] = Table 19, 20° C., relative to total loaded

Substance: IWRKYS
- Percent A1PI Eluted by Fraction Based on Absorbance at 280 nm, 1M NaCl (A1PI [1]; [3]): 94%
- Percent A1PI Eluted by Fraction Based on Absorbance at 280 nm, 2% Acetic Acid (A1PI [1]; [3]): 6%
- Percent A1PI Eluted by Fraction Based on Absorbance at 280 nm, Flowthrough (A1PI [1]; [3]): 0%
- Percent A1PI Eluted by Fraction, 1M NaCl (A1PI [1]; [4]): 81%
- Percent A1PI Eluted by Fraction, 2% Acetic Acid (A1PI [1]; [4]): 19%
- Percent A1PI Eluted by Fraction, Flowthrough (A1PI [1]; [4]): 0%
- Mass Protein per Eluate Fraction, 1M NaCl (A1PI [2]; 4° C., * Below detection limit): 0.68 mg
- Mass Protein per Eluate Fraction, Flow (A1PI [2]; 4° C., * Below detection limit): 0.03 mg
- Percent Eluted by Fraction, 1M NaCl (A1PI [2]; [5]): 96%
- Percent Eluted by Fraction, 2% Ac. Acid (A1PI [2]; [5]): 0%
- Percent Eluted by Fraction, 3M NaCl (A1PI [2]; [5]): 0%
- Percent Eluted by Fraction, Flow (A1PI [2]; [5]): 4%
- Mass Protein per Eluate Fraction, 1M NaCl (A1PI [2]; [6]): 0.58 mg
- Mass Protein per Eluate Fraction, 2% Ac. Acid (A1PI [2]; [6]): 0.11 mg
- Mass Protein per Eluate Fraction, 3M NaCl (A1PI [2]; [6]): 0.00 mg
- Percent Eluted by Fraction, 1M NaCl (A1PI [2]; [7]): 83%
- Percent Eluted by Fraction, 2% Ac. Acid (A1PI [2]; [7]): 17%
- Percent Eluted by Fraction, 3M NaCl (A1PI [2]; [7]): 0%
- Percent Eluted by Fraction, Flow (A1PI [2]; [7]): 0%

Substance: RVLFIV: reversed sequence of VIFLVR
- binding of AlPI (in words) (A1PI [1]): excellent binding
- Percent AlPI Eluted by Fraction, 1M NaCl (A1PI [1]; 4° C.): 27%
- Percent AlPI Eluted by Fraction, 2% Acetic Acid (A1PI [1]; 4° C.): 65%
- Percent AlPI Eluted by Fraction, Flowthrough (A1PI [1]; 4° C.): 8%
- Percent AlPI Eluted by Fraction, 1M NaCl (A1PI [1]; 20° C.): 3%
- Percent AlPI Eluted by Fraction, 2% Acetic Acid (A1PI [1]; 20° C.): 90%
- Percent AlPI Eluted by Fraction, Flowthrough (A1PI [1]; 20° C.): 7%
- Mass Protein per Eluate Fraction, 1M NaCl (A1PI [2]; [8]): 0.11 mg
- Mass Protein per Eluate Fraction, 2% Acetic Acid (A1PI [2]; [8]): 0.25 mg
- Mass Protein per Eluate Fraction, Flow (A1PI [2]; [8]): 0.48 mg
- Percent Eluted by Fraction, 1M NaCl (A1PI [2]; [9]): 13%
- Percent Eluted by Fraction, 2% Acetic Acid (A1PI [2]; [9]): 30%
- Percent Eluted by Fraction, 3M NaCl (A1PI [2]; [9]): 0%
- Percent Eluted by Fraction, Flow (A1PI [2]; [9]): 57%
- Mass Protein per Eluate Fraction, 1M NaCl (A1PI [2]; [10]): 0.04 mg
- Mass Protein per Eluate Fraction, 2% Acetic Acid (A1PI [2]; [10]): 0.54 mg
- Mass Protein per Eluate Fraction, Flow (A1PI [2]; [10]): 0.22 mg
- Percent Eluted by Fraction, 1M NaCl (A1PI [2]; [11]): 5%
- Percent Eluted by Fraction, 2% Acetic Acid (A1PI [2]; [11]): 68%
- Percent Eluted by Fraction, 3M NaCl (A1PI [2]; [11]): 0%
- Percent Eluted by Fraction, Flow (A1PI [2]; [11]): 28%

Substance: V I D L V R: VIWLVR with Trp at position 3 replaced by Asp (VIDLVR)
- % of Total A1PI Eluted by Fraction (Based on Absorbance at 280 nm), 1M NaCl (A1PI [1]; Trp position mutations, 4° C.): 0%
- % of Total A1PI Eluted by Fraction (Based on Absorbance at 280 nm), 2% Acetic Acid (A1PI [1]; Trp position mutations, 4° C.): 0%
- % of Total A1PI Eluted by Fraction (Based on Absorbance at 280 nm), Flowthrough (A1PI [1]; Trp position mutations, 4° C.): 100%
- % of Total A1PI Eluted by Fraction (Based on Absorbance at 280 nm), 1M NaCl (A1PI [1]; Trp position mutations, 20° C.): 0%
- % of Total A1PI Eluted by Fraction (Based on Absorbance at 280 nm), 2% Acetic Acid (A1PI [1]; Trp position mutations, 20° C.): 16%
- % of Total A1PI Eluted by Fraction (Based on Absorbance at 280 nm), Flowthrough (A1PI [1]; Trp position mutations, 20° C.): 84%

Substance: V I F A V R: point mutation of VIFLVR, position 4 (VIFAVR)
- % of Total A1PI Eluted by Fraction (Based on Absorbance at 280 nm), 1M NaCl (A1PI [1]; VIFLVR point mutations, 4° C.): 46%
- % of Total A1PI Eluted by Fraction (Based on Absorbance at 280 nm), 2% Acetic Acid (A1PI [1]; VIFLVR point mutations, 4° C.): 54%
- % of Total A1PI Eluted by Fraction (Based on Absorbance at 280 nm), Flowthrough (A1PI [1]; VIFLVR point mutations, 4° C.): 0%
- % of Total A1PI Eluted by Fraction (Based on Absorbance at 280 nm), 1M NaCl (A1PI [1]; VIFLVR point mutations, 20° C.): 11%
- % of Total A1PI Eluted by Fraction (Based on Absorbance at 280 nm), 2% Acetic Acid (A1PI [1]; VIFLVR point mutations, 20° C.): 89%
- % of Total A1PI Eluted by Fraction (Based on Absorbance at 280 nm), Flowthrough (A1PI [1]; VIFLVR point mutations, 20° C.): 0%

Substance: V I F L A R: point mutation of VIFLVR, position 5 (VIFLAR)
- % of Total A1PI Eluted by Fraction (Based on Absorbance at 280 nm), 1M NaCl (A1PI [1]; VIFLVR point mutations, 4° C.): 25%
- % of Total A1PI Eluted by Fraction (Based on Absorbance at 280 nm), 2% Acetic Acid (A1PI [1]; VIFLVR point mutations, 4° C.): 75%
- % of Total A1PI Eluted by Fraction (Based on Absorbance at 280 nm), Flowthrough (A1PI [1]; VIFLVR point mutations, 4° C.): 0%
- % of Total A1PI Eluted by Fraction (Based on Absorbance at 280 nm), 1M NaCl (A1PI [1]; VIFLVR point mutations, 20° C.): 0%
- % of Total A1PI Eluted by Fraction (Based on Absorbance at 280 nm), 2% Acetic Acid (A1PI [1]; VIFLVR point mutations, 20° C.): 25%
- % of Total A1PI Eluted by Fraction (Based on Absorbance at 280 nm), Flowthrough (A1PI [1]; VIFLVR point mutations, 20° C.): 75%

Substance: V I F L F R: point mutation of VIFLVR, position 5 (VIFLFR)
- % of Total A1PI Eluted by Fraction (Based on Absorbance at 280 nm), 1M NaCl (A1PI [1]; VIFLVR point mutations, 4° C.): 3%
- % of Total A1PI Eluted by Fraction (Based on Absorbance at 280 nm), 2% Acetic Acid (A1PI [1]; VIFLVR point mutations, 4° C.): 56%
- % of Total A1PI Eluted by Fraction (Based on Absorbance at 280 nm), Flowthrough (A1PI [1]; VIFLVR point mutations, 4° C.): 40%

Substance: V I F L Y R: point mutation of VIFLVR, position 5 (VIFLYR)
- % of Total A1PI Eluted by Fraction (Based on Absorbance at 280 nm), 1M NaCl (A1PI [1]; VIFLVR point mutations, 4° C.): 4%
- % of Total A1PI Eluted by Fraction (Based on Absorbance at 280 nm), 2% Acetic Acid (A1PI [1]; VIFLVR point mutations, 4° C.): 40%
- % of Total A1PI Eluted by Fraction (Based on Absorbance at 280 nm), Flowthrough (A1PI [1]; VIFLVR point mutations, 4° C.): 56%
- % of Total A1PI Eluted by Fraction (Based on Absorbance at 280 nm), 1M NaCl (A1PI [1]; VIFLVR point mutations, 20° C.): 3%
- % of Total A1PI Eluted by Fraction (Based on Absorbance at 280 nm), 2% Acetic Acid (A1PI [1]; VIFLVR point mutations, 20° C.): 20%
- % of Total A1PI Eluted by Fraction (Based on Absorbance at 280 nm), Flowthrough (A1PI [1]; VIFLVR point mutations, 20° C.): 77%

From US5985836A, “Alpha-1 proteinase inhibitor binding peptides” (Bayer Corporation, priority 1998, dated 1999)
